Data reported in PMC3820160.

Molecular target: HA/Flag-tagged Met66 prodomain (human)
Test: co-IP

HA/Flag-tagged Met66 prodomain (human), sequence (P23560 19-247): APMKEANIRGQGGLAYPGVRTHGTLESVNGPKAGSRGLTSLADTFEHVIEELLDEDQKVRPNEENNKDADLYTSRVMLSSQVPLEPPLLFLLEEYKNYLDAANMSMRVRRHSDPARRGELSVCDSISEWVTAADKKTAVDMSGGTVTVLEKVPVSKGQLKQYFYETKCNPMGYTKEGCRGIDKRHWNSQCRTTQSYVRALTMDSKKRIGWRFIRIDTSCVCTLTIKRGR

percent more co-immunoprecipitated than with the Val66 prodomain: 23%
Substance: Myc-tagged SorCS2 (from UniProt Q96PQ0 51-1159) (receptor)
